Patent publication US20260209316A1 (US Dept. of Health and Human Services, published 2026)
Where two headings read alike, the source gives them in different places.

Columns and labels:
[1] = molecular target: T1, full-length Sudan GP (GPFL) (Sudan virus (SUDV), UniProt Q7T9D9 33-650); assay: ELISA on coated GP
T1 construct: also called Sudan GPFL; GP(S)FL
T1 sequence: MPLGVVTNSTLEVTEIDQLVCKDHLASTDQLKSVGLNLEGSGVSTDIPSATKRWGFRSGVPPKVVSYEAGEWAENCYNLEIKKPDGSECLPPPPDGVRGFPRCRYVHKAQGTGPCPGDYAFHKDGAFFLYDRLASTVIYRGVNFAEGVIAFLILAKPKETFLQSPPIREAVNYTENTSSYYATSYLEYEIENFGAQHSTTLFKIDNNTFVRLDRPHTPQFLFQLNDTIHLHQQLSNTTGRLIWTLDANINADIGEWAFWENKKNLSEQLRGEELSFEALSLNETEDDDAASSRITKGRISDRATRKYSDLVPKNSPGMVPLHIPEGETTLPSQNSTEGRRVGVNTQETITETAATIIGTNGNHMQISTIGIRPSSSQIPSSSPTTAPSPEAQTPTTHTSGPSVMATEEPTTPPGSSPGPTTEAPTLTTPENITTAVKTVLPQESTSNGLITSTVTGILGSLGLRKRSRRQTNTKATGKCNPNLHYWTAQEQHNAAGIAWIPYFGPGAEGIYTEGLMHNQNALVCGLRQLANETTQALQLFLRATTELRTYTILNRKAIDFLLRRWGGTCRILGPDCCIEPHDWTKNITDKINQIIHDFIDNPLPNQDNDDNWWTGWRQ

[2] = molecular target: T2, SUDV GP on pseudotyped lentiviral vector (Sudan virus (SUDV), UniProt Q7T9D9 33-676); assay: cell-based or functional assay
T2 sequence: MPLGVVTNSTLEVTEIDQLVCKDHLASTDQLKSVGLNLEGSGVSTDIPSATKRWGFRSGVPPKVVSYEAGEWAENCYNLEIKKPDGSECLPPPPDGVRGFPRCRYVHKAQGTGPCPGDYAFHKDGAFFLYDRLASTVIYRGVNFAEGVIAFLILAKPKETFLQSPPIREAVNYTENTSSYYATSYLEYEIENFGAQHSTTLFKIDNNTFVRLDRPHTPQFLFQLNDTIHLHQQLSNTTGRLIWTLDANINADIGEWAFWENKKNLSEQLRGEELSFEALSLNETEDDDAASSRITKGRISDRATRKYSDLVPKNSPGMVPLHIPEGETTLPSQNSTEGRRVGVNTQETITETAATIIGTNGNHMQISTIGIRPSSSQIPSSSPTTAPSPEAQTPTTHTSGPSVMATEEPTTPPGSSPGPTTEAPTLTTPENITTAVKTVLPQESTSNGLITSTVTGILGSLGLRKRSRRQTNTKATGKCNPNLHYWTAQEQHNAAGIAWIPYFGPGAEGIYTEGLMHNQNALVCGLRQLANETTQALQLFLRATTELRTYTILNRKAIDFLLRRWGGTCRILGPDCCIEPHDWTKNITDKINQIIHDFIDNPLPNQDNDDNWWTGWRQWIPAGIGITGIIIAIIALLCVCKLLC

[3] = molecular target: T2, SUDV GP on pseudotyped lentiviral vector; assay: cell-based or functional assay; remark: listed apart in the source
[4] = molecular target: T1, full-length Sudan GP (GPFL); assay: ELISA on coated GP; remark: listed apart in the source

| Binder | EC50 [1] [µg/mL] | IC50, microneutralization of GP-pseudotyped lentiviral vector on HEK293 cells [2] [µg/mL] | IC50, microneutralization of GP-pseudotyped lentiviral vector on HEK293 cells [3] [µg/mL] | EC50 [4] [µg/mL] |
| --- | --- | --- | --- | --- |
| antibody 294S (antibody, V domains shown) VH: QVQLQESGPGLVKPSQTLSLTCTVSGGSISSGGYHWSWIRQHPGKGLEWIGNIYYNGRTYYNPSLKSRVTISVDTSENEFSLKLSSVTAADTAVYYCARDRRRPRIGHDYGMDVWGQGTKVIVSS VL: DIQMTQSPSSLSASVGDRVTISCRASQSISNFLNWYQQKPGQAPKLLIYTASNLQSGVPSRFSGSGSGTDFTLTISSLQPEDFATYYCQQIYNTGMYSFGQGTKLEIKR | 0.0258 | 0.0192 | – | – |
| antibody 578S (antibody, V domains shown) VH: EVQLVESGGGVVQPGRSLRLSCAASGFTFSSYELHWVRQAPGKGLEWVAVISYDGSSKYYADSLKGRFTISRDNSKNTLSLQMNSLRAEDTAMYYCVRQSEAYCSDGRCDWRRALDIWGQGTMVTVSP VL: DIQMTQSPSSLSASVGDRVTITCQASQDIKNYLNWYQQKPGKAPKLLIYDVSKLETGVPSRFSGSGSGTDFSFTISSLQPEDIATYYCQQYDNLPSYTFGQGTKLEIK | – | – | 1.09 | 0.18 |
| antibody 241S (antibody, V domains shown) VH: QVQLVQSGSELKKPGASVKVSCKASGYTFTSYTVNWVRQAPGQGLEWMGWINTNTGNPTYAQGFTGRFVFSSDTSVSTAYLQISDLKAEDTAMYYCARHVAYDLWSGHTVTFDHWGQGTLVTVSS VL: QSALTQPPSASGSPGQSVTISCTGTSSDVGAYNYVSWYQQHPGKAPKLIIYEVTKRPSGVPDRFSGSKSGNTASLTVSGLQAEDEADYYCSSKAGGKTYVFGTGTKVTVL | 0.232 | 0.0275 | – | – |
| antibody 573S (antibody, V domains shown) VH: EVQLVESGGGLVKPGGSLRLSCAASGFTFSSYTMNWVRQAPGKGLEWVSCIRSSSSDKYYADSVKGRFTISRDNTKNSLYLQMNSLRADDTAVYYCARDLGGANNRYYFDYGMDVWGQGTTVTVSS VL: EIVMTQSPATLSVSPGGRATLSCRASQSVYTNLAWYQQKPGQAPRLLIYDASTRATGIPARFSGSGSGTEFTLTISSLQCEDFAVYYCQHYNNWPLYTFGQGTKLEIK | 0.221 | 0.188 | – | – |
| antibody 354S (antibody, V domains shown) VH: QVQLVQSGAEVKKPGASVKVSCKASGYSFASYYIHWVRQAPGQGLEWMGIINPSGGTTSYAQKFQGRVTMTRDTSTSTVYMELSSLGSEDTAVYYCARIVDRVTIYLNGVDNYWGQGTLVTVSS VL: EIVMTQSPATLSVSPGERVTLSCRASQSVSSNLAWFQQTPGQAPRLLIYGASTRASGVPARFSGSGSGTEFTLTISSLQSEDFAVYYCLQYNNWPPGWKYGFGQGTKLEIK | 0.0613 | 0.03 | – | – |
| antibody 102S (antibody, V domains shown) VH: EVQLVESGGGLVQPGGSLRLSCSASGFTFHSYDMNWARQAPGKGLEWVSEISSSGQSKNYADSVRGRFTISRDNAKNSLYLQINSLRSEDTAVYYCARVGFVAKFGSDFSITHGTYYLDYWGQGTLVTVSS VL: QLVLTQSPATLSLSPGERATLSCRASQSVSNYLAWYQQKPGQAPRLLIYDASNRAPGVPARFSGSGSGTDFSLTISSLEPEDFAVYYCLQRSNWPPWTFGQGTKVEIK | – | – | 0.88 | 0.09 |
| antibody 541S (antibody, V domains shown) VH: QVQLVQSGAEVKKPGASVKVSCKASGYTFTNYAITWVRQAPGQGLEWMGWISAFNGQINYAQKFQGRVAMTTDTSTSTAYMELRSLRSDDTAVYYCARAPPMWFSGAKFDYWGQGTLVTVSS VL: QSVLTQPPSVSGTPGQRVTISCSGSSSNIGSNTVNWYQQLPGTAPKLLIYSNDQRPSGVPDRFSGSKSGTSASLAISGLRSEDEADYYCAAWDETLRRVFGGGTRLTVL | 0.368 | 0.478 | – | – |
